Laboratory results from patent publication US10294487B2, “Methods and compositions involving ALS variants with native substrate preference” (E I DU PONT DE NEMOURS AND COMPANY, priority 2012, dated 2019).

Experiments:
[1] = system: G. max ALS1 protein; test: Colorimetric ALS kinetic assay (Km, kcat) with pyruvate as substrate; type: biochemical, Glycine max
Summary of the method: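 Recombinant soybean ALS variants, mature N-terminus from S48, His-MBP tag cleaved off; 0.8 ug enzyme per well in 25 mM potassium phosphate, 15 mM MgCl2, 0.7 mM TPP, 28 uM FAD, 0.2 mg/ml BSA, 0-100 mM pyruvate. Km and Vmax from hyperbolic fit; kcat from Vmax and protein concentration.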

[2] = system: G. max ALS1 protein; test: Substrate specificity ratio (Rf), pyruvate versus 2-ketobutyrate, LC-MS of reduced products; type: biochemical, Glycine max; settings: ratio of [pyruvate] to [2-ketobutyrate] giving equal rates of acetolactate and acetohydroxybutyrate formation, 25 mM pyruvate
Summary of the method: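 Pyruvate was held at 25 mM while 2-ketobutyrate was varied. Reactions were quenched with sodium borohydride, and the reduced acetolactate and acetohydroxybutyrate were separated on C18 with a methanol gradient and quantified by MS integration. Rf is the [pyruvate]/[2-ketobutyrate] ratio that gives equal formation rates of both products.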

[3] = system: soybean embryogenic suspension tissue; test: Chlorsulfuron selectable marker activity in soybean transformation; type: cell-based; settings: chlorsulfuron selection 50 then 100 ppb; SAMS (low) or UBQ10 (high) expression promoter as in label
Source text: Soybean plants expressing ALS variant transgenes were produced using the method of particle gun bombardment (Klein et al. (1987) Nature 327:70-73, U.S. Pat. No. 4,945,050) using a DuPont BIOLISTIC® PDS1000/He instrument. The vectors used to test modified ALS genes as selectable markers in soybean transformation were composed of the S-adenosylmethionine synthase (SAMS) promoter (U.S. Pat. No. 7,741,537) from soybean, or the polyubiquitin 10 (AT-UBQ10) promoter (DuPont) from Arabidopsis, driving the modified ALS coding sequence followed by the native soybean ALS terminator region. The selection agent used during the transformation process was chlorsulfuron. Bombardments were carried out with linear DNA fragments purified away from any bacterial vector DNA. Bombarded soybean embryogenic suspension tissue was cultured for one week in the absence of chlorsulfuron, and then placed in liquid selection medium for 6 weeks. Selection in liquid cultures was at 50 parts per billion (ppb) chlorsulfuron for three weeks, then elevated to 100 ppb. Putative transgenic suspension tissue was sampled for PCR analysis to confirm the presence of the modified ALS gene. Putative transgenic suspension culture tissue was maintained in selection medium for 3 weeks to obtain enough tissue for plant regeneration. […]

B1: GM-ALS1: Glycine Max ALS1 protein, wild type (protein)
chain: MAATASRTTRFSSSSSHPTFPKRITRSTLPLSHQTLTKPNHALKIKCSISKPPTAAPFTKEAPTTEPFVSRFASGEPRKGADILVEALERQGVTTVFAYPGGASMEIHQALTRSAAIRNVLPRHEQGGVFAAEGYARSSGLPGVCIATSGPGATNLVSGLADALMDSVPVVAITGQVPRRMIGTDAFQETPIVEVSRSITKHNYLILDVDDIPRVVAEAFFVATSGRPGPVLIDIPKDVQQQLAVPNWDEPVNLPGYLARLPRPPAEAQLEHIVRLIMEAQKPVLYVGGGSLNSSAELRRFVELTGIPVASTLMGLGTFPIGDEYSLQMLGMHGTVYANYAVDNSDLLLAFGVRFDDRVTGKLEAFASRAKIVHIDIDSAEIGKNKQAHVSVCADLKLALKGINMILEEKGVEGKFDLGGWREEINVQKHKFPLGYKTFQDAISPQHAIEVLDELTNGDAIVSTGVGQHQMWAAQFYKYKRPRQWLTSGGLGAMGFGLPAAIGAAVANPGAVVVDIDGDGSFIMNVQELATIRVENLPVKILLLNNQHLGMVVQWEDRFYKSNRAHTYLGDPSSESEIFPNMLKFADACGIPAARVTKKEELRAAIQRMLDTPGPYLLDVIVPHQEHVLPMIPSNGSFKDVITEGDGRTRY
modifications: GLYCINE MAX
notes: Glycine Max ALS1 protein, wild type
Km [1]: 3000 µM | kcat [1]: 0.933 s⁻¹ | Substrate specificity ratio (Rf) [2]: 114.0 | Substrate specificity ratio (Rf) ([2]; listed as Glycine max ALS1): ~114 | Substrate specificity ratio (Rf) ([2]; listed as wild type enzyme): ~114 | Selectable Marker Activity [3]: not able to act as a selection marker
